Source: article PMC11162425

What was measured:
[1] = biological target: Lcl-N GFP fusion (N-GFP) (Legionella pneumophila strain 130b); experiment: SEC
[2] = biological target: Legionella collagen-like protein (Lcl) from L. pneumophila strain 130b, intact recombinant (residues 1-401) (Legionella pneumophila strain 130b); experiment: SEC-MALS

Substance | stoichiometry N [1] | stoichiometry N [2]
Lcl-N GFP fusion (N-GFP) (domain or fragment) | 3 | –
Legionella collagen-like protein (Lcl) from L. pneumophila strain 130b, intact recombinant (residues 1-401) (natural protein) | – | 3
